{
  "source": "IntAct's records for PubMed 18715118",
  "parents": {"B1": {"name": "Metallothionein expression activator (Saccharomyces cerevisiae), P21192 (parent)", "chain": "MDNVVDPWYINPSGFAKDTQDEEYVQHHDNVNPTIPPPDNYILNNENDDGLDNLLGMDYYNIDDLLTQELRDLDIPLVPSPKTGDGSSDKKNIDRTWNLGDENNKVSHYSKKSMSSHKRGLSGTAIFGFLGHNKTLSISSLQQSILNMSKDPQPMELINELGNHNTVKNNNDDFDHIRENDGENSYLSQVLLKQQEELRIALEKQKEVNEKLEKQLRDNQIQQEKLRKVLEEQEEVAQKLVSGATNSNSKPGSPVILKTPAMQNGRMKDNAIIVTTNSANGGYQFPPPTLISPRMSNTSINGSPSRKYHRQRYPNKSPESNGLNLFSSNSGYLRDSELLSFSPQNYNLNLDGLTYNDHNNTSDKNNNDKKNSTGDNIFRLFEKTSPGGLSISPRINGNSLRSPFLVGTDKSRDDRYAAGTFTPRTQLSPIHKKRESVVSTVSTISQLQDDTEPIHMRNTQNPTLRNANALASSSVLPPIPGSSNNTPIKNSLPQKHVFQHTPVKAPPKNGSNLAPLLNAPDLTDHQLEIKTPIRNNSHCEVESYPQVPPVTHDIHKSPTLHSTSPLPDEIIPRTTPMKITKKPTTLPPGTIDQYVKELPDKLFECLYPNCNKVFKRRYNIRSHIQTHLQDRPYSCDFPGCTKAFVRNHDLIRHKISHNAKKYICPCGKRFNREDALMVHRSRMICTGGKKLEHSINKKLTSPKKSLLDSPHDTSPVKETIARDKDGSVLMKMEEQLRDDMRKHGLLDPPPSTAAHEQNSNRTLSNETDAL"}},
  "data": [
    {"variants_of": "B1", "conditions": "with cbk1_yeast CBK1, P53894", "values": [
      {"variant": "S113A;S122A;S137A", "effect of a mutation on the interaction": "disrupting interaction"},
      {"variant": "S113A;H117A;S137A", "effect of a mutation on the interaction": "disrupting interaction"}
    ]},
    {"variants_of": "B1", "conditions": "with xpo1_yeast CRM1, P30822", "values": [
      {"variant": "S122D", "effect of a mutation on the interaction": "decreasing interaction"},
      {"variant": "F127V", "effect of a mutation on the interaction": "disrupting interaction"},
      {"variant": "S137D", "effect of a mutation on the interaction": "decreasing interaction"},
      {"variant": "S122D;S137D", "effect of a mutation on the interaction": "disrupting interaction"}
    ]},
    {"variants_of": "B1", "conditions": "with xpo1_yeast CRM1, P30822", "remark": "another data set of the same source", "values": [
      {"variant": "F127V", "effect of a mutation on the interaction": "decreasing interaction"}
    ]}
  ]
}
